Drawing on patent EP2586797A2, this text covers fold difference in IC50 relative to mouse 6E10 for seven molecules.

The experiment concerns the target Abeta42 beta amyloid peptide (UniProt P05067). The experiment in a line: competition ELISA, NS0 supernatant titrated against 0.25 ug/ml biotinylated mouse 6E10 (mouse MDT-2007) on coated beta amyloid; IC50 normalised to mouse 6E10 (=1; <1 improved). (ELISA stands for enzyme-linked immunosorbent assay.)

Where a chain is given by its changes, count along the chain named.

Sequence of Abeta42 beta amyloid peptide (P05067 672-713 limits assumed): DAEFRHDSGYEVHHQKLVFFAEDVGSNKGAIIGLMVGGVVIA

B1: Composite human antibody variant VH5/VK3 (antibody, human IgG1, V domains shown)
VH: QVQLVQSGAEVKKPGASVKVSCTASGFNIKDTYIHWVRQARGQRLEWIGRFDPVNVNTRYDSRFRGRVTITSDASTSTAYMELSSLRSEDTAVYYCSRSYYNGRRRFTYWGQGTLVTVSS
VL: DIVMTQSPSSLTASVGDRVTITCKASQSLLSSGNQKNYLTWYQQKPGQPPKLLIYWASIRESGVPDRFSGSGSGTDFTLTISSLQAEDVAVYYCQNDYNYPFTFGQGTKLEIK
With B1, the fold difference in IC50 relative to mouse 6E10 was 1.02 fold.

B2: Composite human antibody variant VH2/VK2 (antibody, human IgG1, V domains shown)
VH: B1 VH with Q1E, V68A, S77N
VL: B1 VL with S69T, D76F
Regarding B2, the fold difference in IC50 relative to mouse 6E10 was 1.1 fold.

B3: Composite human antibody variant VH1/VK1 (antibody, V domains shown)
VH: B1 VH with Q1E, V11L, R41P, V68A, S77N
VL: B1 VL with S9D, A13V, V15L, D17E, V19A, T22N, S69T, D76F
With B3, the fold difference in IC50 relative to mouse 6E10 was determined as 0.78 fold.

B4: Composite human antibody variant VH3/VK3 (antibody, human IgG1, V domains shown)
VH: B1 VH with V68A, S77N
VL: B1 VL
For the molecule B4, the fold difference in IC50 relative to mouse 6E10 is 1.57 fold.

B5: Composite human antibody variant VH1/VK3 (antibody, human IgG1, V domains shown)
VH: B1 VH with Q1E, V11L, R41P, V68A, S77N
VL: B1 VL
B5: the fold difference in IC50 relative to mouse 6E10 stood at 1.93 fold.

B6: Composite human antibody variant VH2/VK3 (antibody, human IgG1, V domains shown)
VH: B1 VH with Q1E, V68A, S77N
VL: B1 VL
For B6, the fold difference in IC50 relative to mouse 6E10 turned out to be 0.96 fold.

B7: Composite human antibody variant VH4/VK3 (antibody, human IgG1, V domains shown)
VH: B1 VH with S77N
VL: B1 VL
Regarding B7, the fold difference in IC50 relative to mouse 6E10 came to 1.36 fold.
